Data as given in patent US20220259593A1, “CONTROL OF MAMMALIAN GENE DOSAGE USING CRISPR” (The Regents of the University of California, priority 2019, published 2022).

B1: cr356 (nucleic acid)
guide: GTTTAAGAGCTAAGCTGGAAACAGCATAGCAAGTTTAAATAAGGCTAGTCCGTTATCACCTTGAAAAAGGGACACCGAGTCGGTGTT
modifications: listed as DNA, chemistry not fully specified
B2: cr756 (nucleic acid)
guide: GTTTAAGAGCTAAGCTGGAAACAGCATAGCAAGTTTAAATAAGGTTAATCCGTTATCAACTTGAAAAAGTGGCAACGAGTCGTTGCT
modifications: listed as DNA, chemistry not fully specified
B3: cr687 (nucleic acid)
guide: GTTTAAGAGCTAAGCTGGAAACAGCATAGCAAGTTTAAATAAGGCTAGTCCGTTATCAACTTGAAAAAGTGGCACTGAGTCGGTGCT
modifications: listed as DNA, chemistry not fully specified
B4: cr804 (nucleic acid)
guide: GTTTAAGAGCTAAGCTGGAAACAGCATAGCAAGCTTAAATAAGGCTAGTCCGTTATCAACTTGAAAAAGTGACACCGAGTCGGTGTT
modifications: listed as DNA, chemistry not fully specified
B5: cr895 (nucleic acid)
guide: GTTTAAGAGCTAAGCTGGAAACAGCATAGCAATTTTAAATAAGGCTAGTCCGTTATCAACTTGTAAAAGTGGCACCGAGTCGGTGCT
modifications: listed as DNA, chemistry not fully specified
B6: cr924 (nucleic acid)
guide: GTTTAAGAGCTAAGCTGGAAACAGCATAGCAAGTTTAAATAAAGCTAGTCTGTTATCAACTTGAAAAAGTGGCGCCGAGTCGGCGCT
modifications: listed as DNA, chemistry not fully specified
B7: cr473 (nucleic acid)
guide: GTTTAAGAGCTAAGCTGGAAACAGCATAGCAAGTTTAAATAAGGCTAGTCCGATATAAACTTGCAAAAGTGGCACCGAGTCGGTGCT
modifications: listed as DNA, chemistry not fully specified
B8: cr813 (nucleic acid)
guide: GTTTAAGAGCTAAGCTGGAAACAGCATAGCAAGTTTAAATAAGGCTAGTCCGTTATCTACTTGAAAAAGTGGCACCGAGTCGGTGCT
modifications: listed as DNA, chemistry not fully specified
B9: cr523 (nucleic acid)
guide: GTTTAAGAGCTAAGCTGGAAACAGCATAGCAAGCTTAAATAAGGCTAGTCCGTTATCAACTTGAAAAAGTGTCACCGAGTCGGTGAT
modifications: listed as DNA, chemistry not fully specified
B10: cr755 (nucleic acid)
guide: GTTTAAGAGCTAAGCTGGAAACAGCATAGCAAGCTTAAATAAGGCTAGTCCGTTATCAACTTGAAAAAGTGGCTCCGAGTCGGAGCT
modifications: listed as DNA, chemistry not fully specified
B11: cr856 (nucleic acid)
guide: GTTTAAGAGCTAAGCTGGAAACAGCATAGCAAGTTTAAATAAGGATATTCCGTTATCAAATTGAAAAATTGGCTCCGAGTCGGAGCT
modifications: listed as DNA, chemistry not fully specified
B12: cr398 (nucleic acid)
guide: GTTTAAGAGCTAAGCTGGAAACAGCATAGCAAGTTTGAATAAGGCTAGTCCGTTATCAACTTGAAAAAGTGGCACCGAGTCGGTGCT
modifications: listed as DNA, chemistry not fully specified
B13: cr343 (nucleic acid)
guide: GTTTAAGAGCTAAGCTGGAAACAGCATAGCAAGTTTAAATAAGGCTAGTCCGTTATCATGAAGAAAATGAGGCACCGAGTCGGTGCT
modifications: listed as DNA, chemistry not fully specified
B14: cr432 (nucleic acid)
guide: GTTTAAGAGCTAAGCTGGAAACAGCATAGCAAGCTTAAATAAGGCTAGTCCGTTATCAAGTTGAAAAACTGGCACCGAGTCGGTGCT
modifications: listed as DNA, chemistry not fully specified
B15: cr527 (nucleic acid)
guide: GTTTAAGAGCTAAGCTGGAAACAGCATAGCAAGTGTAAATAAGGCTAGTCCGTTATCAACTTGAAAAAGTGGCACCGAGTCGGTGCT
modifications: listed as DNA, chemistry not fully specified
B16: cr200 (nucleic acid)
guide: GTTTAAGAGCTAAGCTGGAAACAGCATAGCAAATTTAAATAAGGCTAGTCCGTTATCAACTTGAAAAAGTGGCACCGAGTCGGTGCC
modifications: listed as DNA, chemistry not fully specified
B17: cr569 (nucleic acid)
guide: GTTTAAGAGCTAAGCTGGAAACAGCATGGCAAGTTTAAATAAGGCTCGTCCGTTATGAACTTGAAAAAGTGGCACCGAGTCGGTGCT
modifications: listed as DNA, chemistry not fully specified
B18: cr088 (nucleic acid)
guide: ATTTAGGAGCTAAGCTGGAAACAGCATAGCAAGTTTAAATAAGGCTAGTCCGTTATCAACTTGAAAAAGTGGCACCGAGTCGGTGCT
modifications: listed as DNA, chemistry not fully specified
B19: cr471 (nucleic acid)
guide: GTTTAAGAGCTAAGCTGGAAACAGCATAGCAAGTTTAAATAAGGCTAGTCCGTTATCAACTTGAAAAAGTGTCACACAGTGTGTGAT
modifications: listed as DNA, chemistry not fully specified
B20: cr003 (nucleic acid)
guide: TTTTAAGAGCTAAGCTGGAAACAGCATAGCAAGTTTAAATAAGGCTAGTCCGTTATCAACTTGAAAAAGTGGCACCGAGTCGGTGCT
modifications: listed as DNA, chemistry not fully specified
B21: cr315 (nucleic acid)
guide: GTTTAAGAGCTAAGCTGGAAACAGCATAGCAAGTTTAAATAAAGCTAGTCTGTTATCAACTGGAAACAGTGGCCCCGAGTCGGGGCT
modifications: listed as DNA, chemistry not fully specified
B22: cr201 (nucleic acid)
guide: GTTTAAGAGCTAAGCTGGAAACAGCATAGCAAGTTTAAATAAAGCTAGTCTGTTATCAACTTGAAAAAGTGGCACCGAGTCGGTGCT
modifications: listed as DNA, chemistry not fully specified
B23: cr296 (nucleic acid)
guide: GTTTAAGAGCTAAGCTGGAAACAGCATAGCAAGTTTAAATAAGGCTAGTCCGTTATCAACTTGAAAAAGTGGTACGCAGTGCGTACT
modifications: listed as DNA, chemistry not fully specified
B24: cr545 (nucleic acid)
guide: GTTTAAGAGCTAAGCTGGAAACAGCATAACAAGTTTAAATAAGGCTAGTCCGTCATAAACTTGAAAAAGTGGCACCGAGTCGGTGCT
modifications: listed as DNA, chemistry not fully specified
B25: cr196 (nucleic acid)
guide: GTTTAAGAGCTAAGCTGGAAACAGCATAGCAAGTTTAAATAAGGCTAGTCCGTTATCAACTTGAAAAAGTGGCAGCCAGTGGCTGCT
modifications: listed as DNA, chemistry not fully specified
B26: cr459 (nucleic acid)
guide: GTTTAAGAGCTAAGCTGGAAACAGCATAGCGAGTTTAAATAAGGCTAGTCCGTTATCTACTTGAAAAAGTGGCACCGAGTCGGTGCT
modifications: listed as DNA, chemistry not fully specified
B27: cr966 (nucleic acid)
guide: GTTTAAGAGCTAAGCTGGAAACAGCATAGCAAGTTTAAATAAGGCTAGTCCGTTATCAAGTTGAAAAACTGGCATGGAGTCCATGCT
modifications: listed as DNA, chemistry not fully specified
B28: cr249 (nucleic acid)
guide: GTTTAAGAGCTAAGCTGGAAACAGCATAGCAAGTTTAAATAAGGCTAGTCCGTGATTAACTTGAAAAAGTGGCACCGAGACGGTGCT
modifications: listed as DNA, chemistry not fully specified
B29: cr127 (nucleic acid)
guide: GTTTAAGAGCTAAGCTGGAAACAGCATAGCAAGTTTAAATATGGCTAGTCCGTTATCAACTTGAGAAAGTGGCACCGACTCGGTGCT
modifications: listed as DNA, chemistry not fully specified
B30: cr404 (nucleic acid)
guide: GTTTAAGAGCTAAGCTGGAAACAGCATAGCAAGTTTAAATAAGGCTAGTCCGTTATCCACTTGATAAAGTGGCACCGAGTCGGTGCT
modifications: listed as DNA, chemistry not fully specified

Tested on: K562 CRISPRi cells
Assay: Constant region variant library pooled growth screen, K562
Type: cell-based, human
Details: sgRNA constant region variants; activity relative to the original, un-modified constant region cr995
Method in brief: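 Relative activity expresses each targeting sequence:constant region pair's phenotype over that of the unmodified constant region. Pooled growth screen ran in K562 CRISPRi cells in duplicate spinner-flask replicates, with puromycin selection and 4–8 days' growth at >2000× coverage; library paired variants with 36 targeting sequences.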

First: B1
Second: B2
The Mean relative activity of the first is higher: 1.042 for the first, 1.041 for the second.

For B3, the Mean relative activity was 1.042.

Same assay, conditions: sgRNA constant region variants; relative to the original, un-modified constant region cr995; CRISPRi

First: B4
Second: B5
The Mean relative activity of the first is higher: 0.4025 for the first, 0.3709 for the second.

Compared with B6, B7 is higher in Mean relative activity: 0.3638 for the first, 0.3892 for the second.

Compared with B8, B9 is lower in Mean relative activity: 0.3803 for the first, 0.3746 for the second.

Going from B10 to B11, the Mean relative activity rises from 0.3814 to 0.3826.

First: B12
Second: B13
The Mean relative activity of the first is lower: 0.3667 for the first, 0.3733 for the second.

Compared with B14, B15 is lower in Mean relative activity: 0.3923 for the first, 0.3802 for the second.

Compared with B16, B17 is higher in Mean relative activity: 0.3799 for the first, 0.3992 for the second.

Going from B18 to B19, the Mean relative activity falls from 0.3745 to 0.3625.

First: B20
Second: B21
The Mean relative activity of the first is higher: 0.3678 for the first, 0.3642 for the second.

Going from B22 to B23, the Mean relative activity rises from 0.3731 to 0.3911.

Compared with B24, B25 is lower in Mean relative activity: 0.3936 for the first, 0.3626 for the second.

Compared with B26, B27 is lower in Mean relative activity: 0.3837 for the first, 0.3699 for the second.

Compared with B28, B29 is lower in Mean relative activity: 0.3886 for the first, 0.3659 for the second.

B30 gave a Mean relative activity of 0.3784.
